Results from patent US20240025971A1 (ATRECA, published 2024).

Legend:
[1] = target: T1, SARS-CoV-2 Spike (S) trimer (SARS-CoV-2, UniProt P0DTC2 14-1208); test: ELISA, S trimer coated, 1:50 dilution
T1 construct: also called Spike trimer

[2] = target: T2, SARS-CoV-2 Receptor Binding Domain (RBD) (SARS-CoV-2, UniProt P0DTC2 319-541); test: BLI
T2 construct: also called RBD protein

SARS-CoV-2 S1 protein = target: T3, SARS-CoV-2 S1 protein (SARS-CoV-2, UniProt P0DTC2 16-685); test: BLI
T3 construct: domain: S1 protein; also called S1 monomer

SARS-CoV-2 S2 protein = target: T4, SARS-CoV-2 S2 protein (SARS-CoV-2, UniProt P0DTC2 686-1213); test: BLI
T4 construct: domain: S2 protein; also called S2 monomer

[3] = target: SARS-CoV-1 spike (pseudovirus) (SARS-CoV-1, UniProt P59594 14-1255); test: cell-based or functional assay
[4] = target: SARS-CoV-2 Wuhan-1 full-length Spike protein (SARS-CoV-2, UniProt P0DTC2 14-1273); test: cell-based or functional assay
[5] = target: SARS-CoV-2 Nucleocapsid (N) protein (SARS-CoV-2, UniProt P0DTC9 1-419); test: BLI
[6] = target: T5, SARS-CoV-2 Envelope (E) protein (SARS-CoV-2, UniProt P0DTC4 1-75); test: ELISA
[7] = target: T1, SARS-CoV-2 Spike (S) trimer; test: ELISA
[8] = target: T5, SARS-CoV-2 Envelope (E) protein; test: ELISA, Envelope protein
[9] = target: SARS-CoV-2 Spike (S) trimer (SARS-CoV-2, UniProt P0DTC2 14-1208); test: ELISA, S trimer coated, 1:50 dilution

Row | Binder | Optical Density (OD; 450 nm) [1] [OD450] | binding result [2] | binding result (SARS-CoV-2 S1 protein) | binding result (SARS-CoV-2 S2 protein) | Pseudovirus Neutralization [3] [µg/mL] | Pseudovirus Neutralization [4] [µg/mL] | binding result [5] | binding result [6] | further results
1 | AB-009665 (antibody, V domains shown, human IgG1) VH: QVQLVQSGAEVKKPGASVKVSCKVSGYTLIELSMHWVRQAPGKGLEWMGGFDPEDGETIYAQKFQGRVTMTEDTSTDTAYMELSSLRSEDTAVYYCAAARVFGVATWFDPWGQGTLVTVSS VL: QSVLTQPPSVSAAPGQKVTISCSGSSSNIGNNYVSWYQQLPGTAPKLLIYDNNKRPSGIPDRFSGSKSGTSATLGITGLQTGDEADYYCGTWDSSLSAGVFGGGTKLTVL | 1.38 | no binding (tested: 300 nM) | no binding (tested: 300 nM) | no binding (tested: 300 nM) | – | – | – | – | –
2 | AB-009271 (antibody, V domains shown, human IgG1) VH: EVQLVESGGGLIQPGGSLRLSCAASGFIVSSNYMSWVRQAPGKGLEWVSVIYSGGSTYYADSVKGRFTISRDNSKNTLYLQMNSLRAEDTAVYYCARDYGDFYFDYWGQGTLVTVSS VL: EIVMTQSPATLSVSPGERATLSCRASQSVSSNLAWYQQKPGQAPRLLIYGASTRATGIPARFSGSGSGTEFTLTISSLQSEDFAVYYCQQYYNWPRTFGQGTKVEIK | 2.94 | – | – | no binding (tested: 300 nM) | > 50 | 0.058 | no binding (tested: 300 nM) | no binding (tested: 2-fold over hIgG1 background) | –
3 | AB-009613 (antibody, V domains shown, human IgG1) VH: EVQLVESGGGLIQPGGSLRLSCAASGFTVSSNYMSWVRQAPGKGLEWVSVIYSGGSTYYADSVKGRFTISRDNSKNTLYLQMNSLRAEDTAVYYCARDYGDFYFDYWGQGTLVTVSS VL: not shown | 2.47 | – | – | no binding (tested: 300 nM) | > 50 | 1.53 | no binding (tested: 300 nM) | no binding (tested: 2-fold over hIgG1 background) | –
4 | AB-009666 (antibody, V domains shown, human IgG1) VH: EVQLVESGGGLVQPGGSLRLSCAASGFTFSSYDMHWVRQATGKGLEWVSTIGTAGDTYYPGSVKGRFTISRENAKNSLYLQMNSLRAEDTAVYYCARVNYDSSGYPTYWYFDLWGRGTLVTVSS VL: DIQMTQSPSSLSASVGDRVTITCRASQSISRYLNWYQQKPGKAPKLLIYAASSLQSGVPSRFSGSGSGTDFTLTISSLQPEDFATYNCQQSYSSPPWTFGQGTKVEIK | 2.76 | – | – | no binding (tested: 300 nM) | – | – | no binding (tested: 300 nM) | no binding (tested: 2-fold over hIgG1 background) | –
5 | AB-009119 (antibody, V domains shown, human IgG1) VH: EVQLVESGGGLVQPGGSLKLSCAASGFTFSGSAMHWVRQASGKGLEWVGRIRSKANSYATAYAASVKGRFTISRDDSKNTAYLQMNSLKTEDTAVYYCTRHGTTVNWGQGTLVTVSS VL: not shown | – | no binding (tested: 300 nM) | no binding (tested: 300 nM) | – | – | – | – | – | –
6 | AB-009190 (antibody, V domains shown, human IgG1) VH: QVQLVESGGGVVQPGRSLRLSCAASGFTFSSYAMHWVRQAPGKGLEWVAVISYDGSNKYYADSVKGRFTISRDNSKNTLYLQMNSLRAEDTAVYYCARLNGDAYYYYGMDVWGQGTTVTVSS VL: not shown | – | no binding (tested: 300 nM) | no binding (tested: 300 nM) | no binding (tested: 300 nM) | – | – | – | – | binding result [7]: no binding (tested: 2-fold over hIgG1 background); Optical Density (OD; 450 nm) [8]: 0.469 OD450
7 | AB-009634 (antibody, V domains shown) VH: QVTLKESGPALVKPTQTLTLTCTFSGFSLSTSGMRVSWIRQPPGKALEWLARIDWDDDKFYSTSLKTRLTISKDTSKNQVVLTMTNMDPVDTATYYCARYYYYGMDVWGQGTTVTVSS VL: not shown | – | – | – | – | – | – | – | – | Optical Density (OD; 450 nm) [9]: 2.46 OD450
8 | AB-010020 (antibody, V domains shown, human IgG1) VH: QMQLVQSGPEVKKPGTSVKVSCKASGFTFTSSAVQWVRQARGQRLEWIGWIVVGSGNTNYAQKFQERVTITRDMSTSTAYMELSSLRSEDTAVYYCAAPACSSTSCYDGFDIWGQGTMVTVSS VL: not shown | – | – | – | no binding (tested: 300 nM) | > 50 | 0.004 | – | – | –
9 | AB-010021 (antibody, V domains shown, human IgG1; also called AB-0010021) VH: QMQLVQSGPEVKKPGTSVKVSCKASGFTFTSSAVQWVRQARGQRLEWIGWIVVGSGNTNYAQKFQERVTITRDMSTSTAYMELSSLRSEDTAVYYCAAVYCSGGSCLDAFDIWGQGTMVTVSS VL: not shown | – | – | – | no binding (tested: 300 nM) | > 50 | 1.56 | – | – | –
10 | AB-009095 (antibody, V domains shown, human IgG1) VH: EVQLVQSGAEVKKPGESLIISCTGSGYTFATFWITWVRQMPGKGLEWLGRIDPSDSYTNYNPSFQGHVTVSVDRSINTAYLELTSLKASDTAIYYCARQMYNTGWPIPNYSDYWGQGTLVTVSS VL: QSALTQPPSASGSPGQSVTISCAGASTDVGVYNFVSWYQQHPGKAPKLIIFDVNKRPSGVPDRFSGSKSGNTASLTVSGLQAEDEADYYCSSYEVGNNFVFGTGTKVTVL | – | no binding (tested: 300 nM) | no binding (tested: 300 nM) | – | – | – | – | – | –
11 | AB-009627 (antibody, V domains shown, human IgG1) VH: QVQLQQWGAGLLKPSETLSLTCAVYGGSFSGYYWSWIRQPPGKGLEWIGEINHSGSTNYNPSLKSRVTISVDTSKNQFSLKLSSVTAADTAVFYCARGGYSSSWYGEKYWFDPWGQGTLVTVSS VL: QSALTQPRSVSGSPGQSVTISCTGTSSDVGGYNYVSWYQQHPGKAPKLMIYDVSKRPSGVPDRFSGSKSGNTASLTISGLQAEDEADYYCCSYAGSPYVFGTGTKVTVL | – | – | no binding (tested: 300 nM) | – | – | – | no binding (tested: 300 nM) | no binding (tested: 2-fold over hIgG1 background) | –
12 | AB-009213 (antibody, V domains shown, human IgG1) VH: EVQLVESGGGLVKPGGSLRLSCAASGFTFSSYSMNWVRQAPGKGLEWVSSISSSSSYIYYADSVKGRFTISRDNAKNSLYLQMNSLRAEDTAVYYCARDKLREDGDYDDAFDIWGQGTMVTVSS VL: not shown | – | no binding (tested: 300 nM) | no binding (tested: 300 nM) | no binding (tested: 300 nM) | – | – | – | – | binding result [7]: no binding (tested: 2-fold over hIgG1 background)
13 | AB-009610 (antibody, V domains shown, human IgG1) VH: QVQLVQSGAEVKKPGSSVKVSCKASGGTFSNYAISWVRQAPGQGLEWMGRIIPILGIANYAQKFQGRVTITADKSTSTAYMELSSLRSEDTAVYYCATTPYYYDSSGYYLDYWGQGTLVTVSS VL: not shown | 2.02 | – | – | no binding (tested: 300 nM) | > 50 | 6.77 | no binding (tested: 300 nM) | no binding (tested: 2-fold over hIgG1 background) | –
